According to patent publication US20030036642, “Platelet derived growth factor (PDGF) nucleic acid ligand complexes” (published 2003):
Changes are numbered by the printed parent chain.

B1: 1295 (ssDNA)
DNA: CAGGCUACGGCACGTAGAGCAUCACCATGATCCUG
modifications: 2'-F U6,U22,C23,C32,C33; 2'-OMe C8,G9,G10,C11,A12,A24,C25,C26,A27,U34,G35; 3'-3' inverted T at nt 36
B2: 1328 (ssDNA)
DNA: B1 DNA
modifications: 2'-F U6,U22,C23,C32,C33; 2'-OMe C8,G9,G10,C11,A12,G19,C20,A24,C25,C26,A27,U34,G35; 3'-3' inverted T at nt 36
B3: 1303 (ssDNA)
DNA: B1 DNA
modifications: 2'-F U6; 2'-OMe C8,G9,G10,C11,A12,U22,C23,A24,C25,C26,A27,C32,C33,U34,G35; 3'-3' inverted T at nt 36
B4: 1305 (ssDNA)
DNA: B1 DNA
modifications: 2'-OMe C5,U6,C8,G9,G10,C11,A12,A18,U22,C23,A24,C25,C26,A27,C32,C33,U34,G35; 3'-3' inverted T at nt 36
B5: 1306 (ssDNA)
DNA: B1 DNA
modifications: 2'-OMe C5,U6,C8,G9,G10,C11,A12,G19,U22,C23,A24,C25,C26,A27,C32,C33,U34,G35; 3'-3' inverted T at nt 36
B6: 1374 (ssDNA)
DNA: B1 DNA
modifications: 2'-F U6,U22,C23,C32,C33; 2'-OMe A7,C8,G9,G10,C11,A12,G17,G19,A24,C25,C26,A27,U34,G35; 3'-3' inverted T at nt 36
B7: 1304 (ssDNA)
DNA: B1 DNA
modifications: 2'-OMe C5,U6,A7,C8,G9,G10,C11,A12,U22,C23,A24,C25,C26,A27,C32,C33,U34,G35; 3'-3' inverted T at nt 36
B8: 1369 (ssDNA)
DNA: B1 DNA
modifications: 2'-F U6,U22,C23,C32,C33; 2'-OMe C8,G9,G10,C11,A12,G17,G19,A24,C25,C26,A27,U34,G35; 3'-3' inverted T at nt 36
B9: 1329 (ssDNA)
DNA: B1 DNA
modifications: 2'-F U6,U22,C23,C32,C33; 2'-OMe C8,G9,G10,C11,A12,G17,G19,C20,A24,C25,C26,A27,U34,G35; 3'-3' inverted T at nt 36
B10: 1327 (ssDNA)
DNA: B1 DNA
modifications: 2'-F U6,U22,C23,C32,C33; 2'-OMe C8,G9,G10,C11,A12,G19,A24,C25,C26,A27,U34,G35; 3'-3' inverted T at nt 36
B11: 1076 (ssDNA)
DNA: CACAGGCTACGGCACGUAGAGCATCACCAUGATCCTGTG
modifications: 2'-OMe C1,A2,C3,C10,G11,G12,C13,A14,C15,G16,U17,A26,C27,C28,A29,U30; 3'-3' inverted T at nt 40
B12: 1267 (ssDNA)
DNA: B11 DNA with U17T, U30T, T36U, T38U
modifications: 2'-OMe C10,G11,G12,C13,A14,C25,A26,C27,C28,A29,U36,G37,U38,G39; 2'-F C34,C35; 3'-3' inverted T at nt 40
B13: 1265 (ssDNA)
DNA: B11 DNA with U17T, U30T, T36U, T38U
modifications: 2'-OMe C10,G11,G12,C13,A14,C25,A26,C27,C28,A29,U36,G37,U38,G39; 2'-F C34; 3'-3' inverted T at nt 40
B14: 1257 (ssDNA)
DNA: B11 DNA with U17T, U30T, T38U
modifications: 2'-OMe C10,G11,G12,C13,A14,A26,C27,C28,A29,G37,U38,G39; 2'-F C34; 3'-3' inverted T at nt 40
B15: 1269 (ssDNA)
DNA: CACAGGCUACGGCACGTAGAGCATCACCATGATCCUGUG
modifications: 2'-F U8,C34; 2'-OMe C10,G11,G12,C13,A14,C25,A26,C27,C28,A29,U36,G37,U38,G39; 3'-3' inverted T at nt 40
B16: 1266 (ssDNA)
DNA: B15 DNA with T24U
modifications: 2'-F U8,U24,C25,C34,C35; 2'-OMe C10,G11,G12,C13,A14,A26,C27,C28,A29,U36,G37,U38,G39; 3'-3' inverted T at nt 40
B17: 1297 (ssDNA)
DNA: CAGGCUCGGCACGAGAGCAUCCCAGATCCUG
modifications: 2'-F U6,U20,C21,C28,C29; 2'-OMe C7,G8,G9,C10,A11,C22,C23,A24,U30,G31; 3'-3' inverted T at nt 32
B18: 1296 (ssDNA)
DNA: CAGGCUCGGCACGAGAGCAUCACCATGATCCUG
modifications: 2'-F U6,U20,C21,C30,C31; 2'-OMe C7,G8,G9,C10,A11,A22,C23,C24,A25,U32,G33; 3'-3' inverted T at nt 34

The binders below were run against T1, PDGF-BB (mature B-chain homodimer) (Homo sapiens, UniProt P01127 P01127:82-190) (assay: filter; printed as 0.159 ± 13 pM, unit evidently nM ± pM). Conditions: tags: R&D Systems, expressed in E. coli, carrier-free; chain copies: 2 B-chains (stated as BB isoform).
Experimental: (§1) Determination of the apparent equilibrium dissociation constants and the dissociation rate constants. The binding of ssDNA ligands at low concentrations to varying concentrations of PDGF was determined by the nitrocellulose filter binding method as described (Green et al. (1995) Chemistry and Biology 2:683-695). […] All ssDNA ligands were heated at 90° C. in binding buffer at high dilution (≈1 nM) for 2 min and cooled on ice prior to further dilution into the protein solution. The binding mixtures were typically incubated for 15 min at 37° C. before partitioning on nitrocellulose filters.

T1 sequence (P01127 82-190, one chain of several): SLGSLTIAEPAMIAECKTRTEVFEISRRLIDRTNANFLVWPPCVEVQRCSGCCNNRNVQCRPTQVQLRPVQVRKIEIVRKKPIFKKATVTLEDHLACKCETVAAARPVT

Binder	Kd
CAGGCTACGGCACGTAGAGCATCACCATGATCCTGT (ssDNA, 3'-3' inverted T at nt 36) [36ta]	0.159 nM

What follows are binders tested against PDGF-AB (A-chain/B-chain heterodimer) (Homo sapiens, UniProt P04085;P01127 P04085:87-211,P01127:82-190) (assay: filter). Conditions: tags: R&D Systems, expressed in E. coli, carrier-free.
Experimental: as §1

PDGF-AB (A-chain/B-chain heterodimer), sequence (P01127 82-190, chain 2 of 2, other chains not shown): as the sequence (P01127 82-190, one chain of several) above

Binder	binding signal
B1	0.9 Kd ligand/Kd 36t
B2	2.2 Kd ligand/Kd 36t
B3	5.8 Kd ligand/Kd 36t
B4	196 Kd ligand/Kd 36t
B5	4.4 Kd ligand/Kd 36t
B6	1.5 Kd ligand/Kd 36t
B7	607 Kd ligand/Kd 36t
B8	0.37 Kd ligand/Kd 36t
B9	0.72 Kd ligand/Kd 36t
B10	0.63 Kd ligand/Kd 36t
CACAGGCTACGGCACGUAGAGCATCACCATGATCCTGTG (ssDNA, 2'-OMe C10,G11,G12,C13,A14,C15,G16,U17; 3'-3' inverted T at nt 40) [1074]	3.1 Kd ligand/Kd 36t
CACAGGCTACGGCACGTAGAGCATCACCATGATCCTGTG (ssDNA, 2'-F U30; 3'-3' inverted T at nt 40) [1163]	1.3 Kd ligand/Kd 36t
B11	440 Kd ligand/Kd 36t
CACAGGCTACGGCACGUAGAGCATCACCATGATCCTGTG (ssDNA, 2'-OMe G12,C13,A14,C15,G16,U17; 3'-3' inverted T at nt 40) [EV2]	5.3 Kd ligand/Kd 36t
B12	4.2 Kd ligand/Kd 36t
CACAGGCTACGGCACGTAGAGCATCACCATGATCCTGTG (ssDNA, 2'-F U8; 3'-3' inverted T at nt 40) [1164]	0.45 Kd ligand/Kd 36t
CACAGGCTACGGCACGUAGAGCAUCACCATGATCCTGTG (ssDNA, 2'-OMe U17,A23,U24; 3'-3' inverted T at nt 40) [1142]	12.9 Kd ligand/Kd 36t
CACAGGCTACGGCACGTAGAGCATCACCATGATCCTGTG (ssDNA, 2'-F U17; 3'-3' inverted T at nt 40) [1166]	0.76 Kd ligand/Kd 36t
CACAGGCTACGGCACGTAGAGCATCACCATGATCCTGTG (ssDNA, 2'-F U24; 3'-3' inverted T at nt 40) [1159]	0.37 Kd ligand/Kd 36t
CACAGGCTACGGCACGTAGAGCATCACCATGAUCCUGTG (ssDNA, 2'-OMe G31,A32,U33,C34,C35,U36; 3'-3' inverted T at nt 40) [1144]	994 Kd ligand/Kd 36t

Binder	binding signal
CACAGGCTACGGCACGTAGAGCATCACCATGATCCTGTG (ssDNA, 2'-F U33; 3'-3' inverted T at nt 40) [1158]	2.4 Kd ligand/Kd 36t
CACAGGCTACGGCACGTAGAGCATCACCAUGATCCTGTG (ssDNA, 2'-OMe A26,C27,C28,A29,U30; 3'-3' inverted T at nt 40) [1075]	10 Kd ligand/Kd 36t
B13	1.4 Kd ligand/Kd 36t
CACAGGCTACGGCACGTAGAGCATCACCATGATCCUGUG (ssDNA, 2'-OMe U36,G37,U38,G39; 3'-3' inverted T at nt 40) [EV5]	2.3 Kd ligand/Kd 36t
B14	1.3 Kd ligand/Kd 36t
CACAGGCUACGGCACGTAGAGCATCACCATGATCCTGTG (ssDNA, 2'-OMe A4,G5,G6,C7,U8,A9; 3'-3' inverted T at nt 40) [1148]	281 Kd ligand/Kd 36t
B15	0.87 Kd ligand/Kd 36t
B16	1 Kd ligand/Kd 36t
B17	2.9 Kd ligand/Kd 36t
CACAGGCTACGGCACGTAGAGCATCACCATGATCCTGTGT (ssDNA, 2'-OMe C25,A26,C27,C28,A29; 3'-3' inverted T at nt 40) [1145]	0.27 Kd ligand/Kd 36t
CACAGGCTACGGCACGTAGAGCATCACCATGATCCTGTGT (ssDNA, 2'-OMe A20,G21,C22; 3'-3' inverted T at nt 40) [EV1]	35.1 Kd ligand/Kd 36t
CACAGGCTACGGCACGTAGAGCATCACCATGATCCTGTGT (ssDNA, 2'-F C35; 3'-3' inverted T at nt 40) [1165]	0.61 Kd ligand/Kd 36t
CACAGGCTACGGCACGTAGAGCATCACCATGATCCTGTGT (ssDNA, 2'-F C7; 3'-3' inverted T at nt 40) [1157]	1 Kd ligand/Kd 36t
CACAGGCTACGGCACGTAGAGCATCACCATGATCCTGTGT (ssDNA, 2'-OMe C10,G11,G12,C13,A14; 3'-3' inverted T at nt 40) [EV3]	1.5 Kd ligand/Kd 36t
CACAGGCTACGGCACGTAGAGCATCACCATGATCCTGTGT (ssDNA, 2'-OMe C1,A2,C3,A4; 3'-3' inverted T at nt 40) [EV4]	4.5 Kd ligand/Kd 36t
CACAGGCTACGGCACGTAGAGCATCACCATGATCCTGTGT (ssDNA, 2'-F C34; 3'-3' inverted T at nt 40) [1162]	0.52 Kd ligand/Kd 36t
CACAGGCTACGGCACGTAGAGCATCACCATGATCCTGTGT (ssDNA, 2'-OMe G19,A20,G21,C22; 3'-3' inverted T at nt 40) [1149]	2.9 Kd ligand/Kd 36t
CACAGGCTACGGCACGTAGAGCATCACCATGATCCTGTGT (ssDNA, 2'-F C25; 3'-3' inverted T at nt 40) [1161]	0.22 Kd ligand/Kd 36t
CACAGGCTACGGCACGTAGAGCATCACCATGATCCTGTGT (ssDNA, 2'-F C22; 3'-3' inverted T at nt 40) [1160]	1.4 Kd ligand/Kd 36t
B18	2.1 Kd ligand/Kd 36t

The binders below were run against T1, PDGF-BB (mature B-chain homodimer) (assay: inhibition; 125I-PDGF-BB binding to alpha-receptor on PAE cells, 4 C). Conditions: tags: R&D Systems, expressed in E. coli, carrier-free; chain copies: 2 B-chains (stated as BB isoform); three-way helix junction.
Experimental: Receptor Binding Assay. The binding of ′ ²⁵I-PDGF-AA and ¹²⁵I-PDGF-BB to porcine aortic endothelial (PAE) cells transfected with PDGF α- or β-receptors were performed as described (Heldin et al., (1988) EMBO J. 7:1387-1394). Different concentrations of DNA ligands were added to the cell culture (1.5 cm²) in 0.2 ml of phosphate buffered saline supplemented with 1 mg bovine serum albumin per ml together with ¹²⁵I-PDGF-AA (2 ng, 100,000 cpm) or ¹²⁵I-PDGF-BB (2 ng, 100,000 cpm). After incubation at 4° C. for 90 min, the cell cultures were washed and cell associated radioactivity determined in a g-counter (Heldin et al., (1988) EMBO J. 7:1387-1394).

Binder	IC50
TGGGAGGGCGCGTTCTTCGTGGTTACTTTTAGTCCCGT (ssDNA, 3'-3' inverted T at nt 38) [20t]	~1 nM
TACTCAGGGCACTGCAAGCAATTGTGGTCCCAATGGGCTGAGTAT (ssDNA, 3'-3' inverted T at nt 45) [41t]	~1 nM
CACAGGCTACGGCACGTAGAGCATCACCATGATCCTGTGT (ssDNA, 3'-3' inverted T at nt 40) [36t]	~1 nM
